Results as given in patent US6960559B1, “Neurite growth regulatory factors” (University of Zurich, priority 1988, dated 2005).
Where “and” joins values, the source holds several entries; their conditions need not be identical. Identical values can stand only once.

B1: soybean trypsin inhibitor: serine protease blocker (protein, UniProt P01070 25-205, looked up)
Trypsin inhibitor A: DFVLDNEGNPLENGGTYYILSDITAFGGIRAAPTGNERCPLTVVQSRNELDKGIGTIISSPYRIRFIAEGHPLSLKFDSFAVIMLCVGIPTEWSVVEDLPEGPAVKIGENKDAMDGWFRLERVSDDEFNNYKLVFCPQQAEDDKCGDIGISIDHDDGTRRLVVSKNKPLVVQFQKLDKESL
B2: 2-macroglobulin: general protease inhibitor (protein, UniProt P01023 24-1474, looked up)
Alpha-2-macroglobulin: SVSGKPQYMVLVPSLLHTETTEKGCVLLSYLNETVTVSASLESVRGNRSLFTDLEAENDVLHCVAFAVPKSSSNEEVMFLTVQVKGPTQEFKKRTTVMVKNEDSLVFVQTDKSIYKPGQTVKFRVVSMDENFHPLNELIPLVYIQDPKGNRIAQWQSFQLEGGLKQFSFPLSSEPFQGSYKVVVQKKSGGRTEHPFTVEEFVLPKFEVQVTVPKIITILEEEMNVSVCGLYTYGKPVPGHVTVSICRKYSDASDCHGEDSQAFCEKFSGQLNSHGCFYQQVKTKVFQLKRKEYEMKLHTEAQIQEEGTVVELTGRQSSEITRTITKLSFVKVDSHFRQGIPFFGQVRLVDGKGVPIPNKVIFIRGNEANYYSNATTDEHGLVQFSINTTNVMGTSLTVRVNYKDRSPCYGYQWVSEEHEEAHHTAYLVFSPSKSFVHLEPMSHELPCGHTQTVQAHYILNGGTLLGLKKLSFYYLIMAKGGIVRTGTHGLLVKQEDMKGHFSISIPVKSDIAPVARLLIYAVLPTGDVIGDSAKYDVENCLANKVDLSFSPSQSLPASHAHLRVTAAPQSVCALRAVDQSVLLMKPDAELSASSVYNLLPEKDLTGFPGPLNDQDNEDCINRHNVYINGITYTPVSSTNEKDMYSFLEDMGLKAFTNSKIRKPKMCPQLQQYEMHGPEGLRVGFYESDVMGRGHARLVHVEEPHTETVRKYFPETWIWDLVVVNSAGVAEVGVTVPDTITEWKAGAFCLSEDAGLGISSTASLRAFQPFFVELTMPYSVIRGEAFTLKATVLNYLPKCIRVSVQLEASPAFLAVPVEKEQAPHCICANGRQTVSWAVTPKSLGNVNFTVSAEALESQELCGTEVPSVPEHGRKDTVIKPLLVEPEGLEKETTFNSLLCPSGGEVSEELSLKLPPNVVEESARASVSVLGDILGSAMQNTQNLLQMPYGCGEQNMVLFAPNIYVLDYLNETQQLTPEIKSKAIGYLNTGYQRQLNYKHYDGSYSTFGERYGRNQGNTWLTAFVLKTFAQARAYIFIDEAHITQALIWLSQRQKDNGCFRSSGSLLNNAIKGGVEDEVTLSAYITIALLEIPLTVTHPVVRNALFCLESAWKTAQEGDHGSHVYTKALLAYAFALAGNQDKRKEVLKSLNEEAVKKDNSVHWERPQKPKAPVGHFYEPQAPSAEVEMTSYVLLAYLTAQPAPTSEDLTSATNIVKWITKQQNAQGGFSSTQDTVVALHALSKYGAATFTRTGKAAQVTIQSSGTFSSKFQVDNNNRLLLQQVSLPELPGEYSMKVTGEGCVYLQTSLKYNILPEKEEFPFALGVQTLPQTCDEPKAHTSFQISLSVSYTGSRSASNMAIVDVKMVSGFIPLKPTVKMLERSNHVSRTEVSSNHVLIYLDKVSNQTLSLFFTVLQDVPVRDLKPAIVKVYDYYETDEFAIAEYNAPCSKDLGNA
B3: tPA: tissue-type plasminogen activator (protein, UniProt P00750 36-562, looked up)
Tissue-type plasminogen …: SYQVICRDEKTQMIYQQHQSWLRPVLRSNRVEYCWCNSGRAQCHSVPVKSCSEPRCFNGGTCQQALYFSDFVCQCPEGFAGKCCEIDTRATCYEDQGISYRGTWSTAESGAECTNWNSSALAQKPYSGRRPDAIRLGLGNHNYCRNPDRDSKPWCYVFKAGKYSSEFCSTPACSEGNSDCYFGNGSAYRGTHSLTESGASCLPWNSMILIGKVYTAQNPSAQALGLGKHNYCRNPDGDAKPWCHVLKNRRLTWEYCDVPSCSTCGLRQYSQPQFRIKGGLFADIASHPWQAAIFAKHRRSPGERFLCGGILISSCWILSAAHCFQERFPPHHLTVILGRTYRVVPGEEEQKFEVEKYIVHKEFDDDTYDNDIALLQLKSDSSRCAQESSVVRTVCLPPADLQLPDWTECELSGYGKHEALSPFYSERLKEAHVRLYPSSRCTSQHLLNRTVTDNMLCAGDTRSGGPQANLHDACQGDSGGPLVCLNDGRMTLVGIISWGLGCGQKDVPGVYTKVTNYLDWIRDNMRP
B4: papain: cysteine protease (protein, UniProt P00784 134-345, looked up)
Papain: IPEYVDWRQKGAVTPVKNQGSCGSCWAFSAVVTIEGIIKIRTGNLNEYSEQELLDCDRRSYGCNGGYPWSALQLVAQYGIHYRNTYPYEGVQRYCRSREKGPYAAKTDGVRQVQPYNEGALLYSIANQPVSVVLEAAGKDFQLYRGGIFVGPCGNKVDHAVAAVGYGPNYILIKNSWGTGWGENGYIRIKRGTGNSYGVCGLYTSSFYPVKN

Experiments:
[1] = system: C6 plasma membrane associated metalloendoprotease; experiment: Enzyme assay: cbz-FAF[125I]Y-NH2 degradation by C6 plasma membranes with protease blockers; format: biochemical, rat
Experimental: For most experiments, 70-80% confluent cell layers (1 cm^2 wells, 100 μl MEMα) or 2-5 μg C6 plasma membrane (100 μl MEMα) were used. […] If indicated, cell layers or plasma membrane suspensions were preincubated for 30 min with protease blockers or peptides. NEM or iodacetamide incubations of plasma membranes were performed at pH 8.5. The incubation was stopped by loading a 10 μl aliquot of the incubation medium on a thin layer chromatography plate (10 cm height, Kieselgel 60 F254, MERCK, Germany) and air dried. […] Plates were then air dried and exposed on Kodak X-OMAT films (NY, USA) with an intensifying screen. To identify the degradation products on thin-layer chromatography, we run reference peptides under the same conditions.
(§1) For the quantification of the activity, the reaction was stopped by addition of an equal volume of chloroform. […] Activity is expressed as % radioactivity contained in the aqueous phase. 100% is the sum of the radioactivity of both phases.

C6 cells = experiment: C6 cell spreading on CNS myelin or PLYS with protease inhibitors; format: cell-based, rat; conditions: C6 cells; spreading on PLYS minus spreading on CNS myelin
Experimental: Rat C6, mouse NIH 3T3 and B16 cells were cultured in Dulbecco's modified Eagle's medium (DMEM) supplemented with 10% fetal calf serum (FCS), usually to maximally 70-80% confluency. Cells were harvested with a short trypsin treatment (0.1% in Ca^2+/Mg^2+-free Hank's medium for 90 seconds) stopped by addition of FCS in excess, collected by centrifugation. Cells were resuspended in either DMEM/FCS or defined serum-free medium (MEM) and used for experiments. […]
Myelin from rat spinal cord (CNS) or sciatic nerve (PNS) purified on a discontinuous sucrose gradient as described in Section 6.1.5., was dried overnight onto PLYS coated wells (20 μg protein/well of 100 mm^2 surface). […] Experiments were scored at different time points using a phase contrast microscope equipped with a photocamera. Quantifications were done using a surface integration program; three arbitrary fields were photographed for each well at a magnitude of 80×, at least 25 cells per picture were measured. […] Results are expressed as μ^2 of projected cell surface, or as degree, which was calculated by subtracting from the projected surface value of a spreading cell, the surface value of a completely spheric cell.

cbz-FAF[^125I]Y-NH2 = experiment: Degradation of cbz-FAF[125I]Y-NH2 by defined proteases and C6 cell fractions; format: biochemical; conditions: 37° C., pH 7.4
Experimental: Preparation of plasma membrane from C6 cells was performed according to (Raper and Kapfhammer, 1990, Neuron 2:21-29) with some modifications. Briefly, C6 cells were cultured in 30 culture dishes (13.5 cm diameter). At confluency, the culture medium was removed and the cell layers were frozen to −20° C. All subsequent manipulations were performed at 4° C.: cell debris were collected using a rubber policeman in 100 ml CMF-Hank's and further homogenized by 10 strokes in a Dounce homogenizer with teflon plunger. A small aliquot of this suspension was stored at −20° C. and used later (homogenate-fraction). The nuclear pellet was obtained by low speed centrifugation (10 min, 1000×g) in a Sorvall S22 rotor and stored at […] A crude vesicular fraction was obtained by centrifugating the nuclear supernatant in a Sorvall S22 rotor (20,000×g, 30 min), and was resuspended in 10 ml CMF-Hank's. After adding 20 ml 2.25 M sucrose in CMF-Hank's, this suspension was loaded on 4×8 ml 2.25 M sucrose in CMF-Hank's and centrifuged at 80,000×g for 1 h in a Beckman SW28 motor. […]
as §1

| Molecule | Amount necessary to degrade 50% of substrate in 30 min (cbz-FAF[^125I]Y-NH2) | further results |
| --- | --- | --- |
| B1 |  | Effect on cbz-FAF[^125I]Y-NH2 degradation by C6 plasma membranes, in words [1]: had no effect |
| B2 |  | Inhibition on CNS (%) (C6 cells): 18% |
| B3 | >100 µg |  |
| B4 | 2 µg and 2.0 µg |  |
